# Measured values: IntAct's records for PubMed 24976139
# B1: Tyrosine-protein phosphatase non-receptor type 1 (Homo sapiens), P18031 (parent)
# chain: MEMEKEFEQIDKSGSWAAIYQDIRHEASDFPCRVAKLPKNKNRNRYRDVSPFDHSRIKLHQEDNDYINASLIKMEEAQRSYILTQGPLPNTCGHFWEMVWEQKSRGVVMLNRVMEKGSLKCAQYWPQKEEKEMIFEDTNLKLTLISEDIKSYYTVRQLELENLTTQETREILHFHYTTWPDFGVPESPASFLNFLFKVRESGSLSPEHGPVVVHCSAGIGRSGTFCLADTCLLLMDKRKDPSSVDIKKVLLEMRKFRMGLIQTADQLRFSYLAVIEGAKFIMGDSSVQDQWKELSHEDLEPPPEHIPPPPRPPKRILEPHNGKCREFFPNHQWVKEETQEDKDCPIKEEKGSPLNAAPYGIESMSQDTEVRSRVVGGSLRGAQAASPAKGEPSLPEKDEDHALSYWKPFLVNMCVATVLTAGAYLCYRFLFNSNT
# partner: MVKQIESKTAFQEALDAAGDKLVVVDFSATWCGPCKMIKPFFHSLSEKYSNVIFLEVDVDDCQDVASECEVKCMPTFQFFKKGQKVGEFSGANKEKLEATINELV
# Variants of: B1
# Conditions: with thio_human TXN
row,effect of a mutation on the interaction,Variant
1,disrupting interaction,C215A;S216A
